Results from the RNAGym collection of RNA variant scans (doi:10.7554/elife.80360).

B1: HDV Ribozyme (parent)
chain: GGCCGGCAUGGUCCCAGCCUCCUCGCUGGCGCCGGCUGGGCAACAUUCCGAGGGGACCGUCCCCUCGGUAAUGGCGAAUGGGACCCA

Variants of: B1
Test: self-cleavage, relative activity (ratio to wild type); higher = more cleavage; co-transcriptional

Variant | self-cleavage
GGCCGGCAUGGUCCCAGCCUCCUCGCUGGCGCCGGCUAGGUAACAUUCCGAGGGGACCGUCCCCUCGGUAAUGGCGAAUGGGACCCA [G38A C41U] | 0.354
GGCCGGCAUGGUCCCAGCCUCCUCGCUGGCGCCGGCUAGGAAACAUUCCGAGGGGACCGUCCCCUCGGUAAUGGCGAAUGGGACCCA [G38A C41A] | 0.185
GGCCGGCAUGGUCCCAGCCUCCUCGCUGGCGCCGGCUAGGCAACAUUCCGAGGGGACCGUCACCUCGGUAAUGGCGAAUGGGACCCA [G38A C62A] | 0.0733
GGCCGGCAUGGUCCCAGCCUCCUCGCUGGCGCCGGCUAGGCAACAUUCCGAGGGGACCGUCCCCUCGGUAAUGGCGAAUGGGACGCA [G38A C85G] | 0.157
GGCCGGCAUGGUCCCAGCCUCCUCGCUGGCGCCGGCUAGGCAACAUUCCGAGGGGACCGUCCCCUCGGUAAUGGCGAUUGGGACCCA [G38A A78U] | 0.0297
GGCCGGCAUGGUCCCAGCCUCCUCGCUGGCGCCGGCUAGGCAACAUUCCGAGGGGACCGUCCCCUCGGUAAUGGCGACUGGGACCCA [G38A A78C] | 0.138
GGCCGGCAUGGUCCCAGCCUCCUCGCUGGCGCCGGCUAGGCAACAUUCCGAGGGGACCGUCCCCUCGGUAAUGGCGAGUGGGACCCA [G38A A78G] | 0.0755
GGCCGGCAUGGUCCCAGCCUCCUCGCUGGCGCCGGCUAGGCAACAUUUCGAGGGGACCGUCCCCUCGGUAAUGGCGAAUGGGACCCA [G38A C48U] | 0.115
GGCCGGCAUGGUCCCAGCCUCCUCGCUGGCGCCGGCUAGGCAACAUUACGAGGGGACCGUCCCCUCGGUAAUGGCGAAUGGGACCCA [G38A C48A] | 0.121
GGCCGGCAUGGUCCCAGCCUCCUCGCUGGCGCCGGCUAGGCAACAUUCCGAGGGGACCGUCCCCUCGGUAAUGGCGAAUGGGAACCA [G38A C84A] | 0.185
GGCCGGCAUGGUCCCAGCCUCCUCGCUGGCGCCGGCUAGGCAACAUUCCGAGGGGACCGUCCCCUCGGUAAUGGGGAAUGGGACCCA [G38A C75G] | 0.0302
GGCCGGCAUGGUCCCAGCCUCCUCGCUGGCGCCGGCUAGGCAACAUUCCGAGGGGACCGUCCCCUCGGUAAUGGUGAAUGGGACCCA [G38A C75U] | 0.0443
GGCCGGCAUGGUCCCAGCCUCCUCGCUGGCGCCGGCUACGCAACAUUCCGAGGGGACCGUCCCCUCGGUAAUGGCGAAUGGGACCCA [G38A G39C] | 0.0923
GGCCGGCAUGGUCCCAGCCUCCUCGCUGGCGCCGGCUAAGCAACAUUCCGAGGGGACCGUCCCCUCGGUAAUGGCGAAUGGGACCCA [G38A G39A] | 0.0963
GGCCGGCAUGGUCCCAGCCUCCUCGCUGGCGCCGGCUAGGCAACAUUCCGAGGGGGCCGUCCCCUCGGUAAUGGCGAAUGGGACCCA [G38A A56G] | 0.108
GGCCGGCAUGGUCCCAGCCUCCUCGCUGGCGCCGGCUAGGCAACAUUCCGAGGGGACCGUCCCCUCGGUAAUGGCGAAUGGGUCCCA [G38A A83U] | 0.13

Variant | self-cleavage
GGCCGGCAUGGUCCCAGCCUCCUCGCUGGCGCCGGCUAGGCAACAUUCCGAGGGGAACGUCCCCUCGGUAAUGGCGAAUGGGACCCA [G38A C57A] | 0.128
GGCCGGCAUGGUCCCAGCCUCCUCGCUGGCGCCGGCUAGGCAACAUUCCGAGGGGAUCGUCCCCUCGGUAAUGGCGAAUGGGACCCA [G38A C57U] | 0.211
GGCCGGCAUGGUCCCAGCCUCCUCGCUGGCGCCGGCUAGGCAACAUUCCGAGGGGAGCGUCCCCUCGGUAAUGGCGAAUGGGACCCA [G38A C57G] | 0.224
GGCCGGCAUGGUCCCAGCCUCCUCGCUGGCGCCGGCUAGGCAACAUUCCGAGGGGACCGUCCCCUCGGUAAUGGCGAAUGGGACCCC [G38A A87C] | 0.0881
GGCCGGCAUGGUCCCAGCCUCCUCGCUGGCGCCGGCUAGGCAACAUUCCGAGGGGACCGUCCCCUCGGUAAUGGCGAAUGGGACCCG [G38A A87G] | 0.219
GGCCGGCAUGGUCCCAGCCUCCUCGCUGGCGCCGGCUAGGCAACAUUCCGAGGGGACCGUCCCCUCGGUAAUGGCGAAUGGGACCUA [G38A C86U] | 0.138
GGCCGGCAUGGUCCCAGCCUCCUCGCUGGCGCCGGCUAGGCAACAUUCCGAGGGGACCGUCCCCUCGGUAAUGGCGAAUGGGACCAA [G38A C86A] | 0.247
GGCCGGCAUGGUCCCAGCCUCCUCGCUGGCGCCGGCUAGGCAACAUUCCGAGGGGACUGUCCCCUCGGUAAUGGCGAAUGGGACCCA [G38A C58U] | 0.175
GGCCGGCAUGGUCCCAGCCUCCUCGCUGGCGCCGGCUAGGCAACAUUCCGUGGGGACCGUCCCCUCGGUAAUGGCGAAUGGGACCCA [G38A A51U] | 0.268
GGCCGGCAUGGUCCCAGCCUCCUCGCUGGCGCCGGCUAGGCAACAUUCCGAGGGGACCGUCCCCUGGGUAAUGGCGAAUGGGACCCA [G38A C66G] | 0.109
GGCCGGCAUGGUCCCAGCCUCCUCGCUGGCGCCGGCUAGGCAACAUUCCGAGGGGACCGUCCCCUUGGUAAUGGCGAAUGGGACCCA [G38A C66U] | 0.128
GGCCGGCAUGGUCCCAGCCUCCUCGCUGGCGCCGGCUAGGCAACAUUCCGAGGGGACCGUCCCCUCGGUAAUGGCGCAUGGGACCCA [G38A A77C] | 0.0354
GGCCGGCAUGGUCCCAGCCUCCUCGCUGGCGCCGGCUAGGCAACAUUCCGAGGGGACCGUUCCCUCGGUAAUGGCGAAUGGGACCCA [G38A C61U] | 0.0573
GGCCGGCAUGGUCCCAGCCUCCUCGCUGGCGCCGGCUAGACAACAUUCCGAGGGGACCGUCCCCUCGGUAAUGGCGAAUGGGACCCA [G38A G40A] | 0.262
GGCCGGCAUGGUCCCAGCCUCCUCGCUGGCGCCGGCUAGUCAACAUUCCGAGGGGACCGUCCCCUCGGUAAUGGCGAAUGGGACCCA [G38A G40U] | 0.149
GGCCGGCAUGGUCCCAGCCUCCUCGCUGGCGCCGGCUAGCCAACAUUCCGAGGGGACCGUCCCCUCGGUAAUGGCGAAUGGGACCCA [G38A G40C] | 0.138
